The text below walks through data of article PMC10053881 (Pharmaceutics, 2023).

In this data set the test system is gastric NET with lymph node and hepatic metastases. In words: PET/CT imaging in a NET patient. The following applies: [68Ga]Ga-DOTA-NOC 1 h pi, [68Ga]Ga-DATA5m-LM4 10 min–3 h pi. Type of data set: in vivo, human. The text has this: After a preceding PET/CT imaging with [^68Ga]Ga-DOTA-NOC ([^68Ga]Ga-DOTA-[1-Nal^3]octreotide), the patient underwent first PET/CT with [^68Ga]Ga-DATA^5m-LM4 on a dedicated GE Discovery 710 × 128 Slice PET/CT Scanner (GE HealthCare Technologies Inc.,/GE Healthcare, Chicago, IL, USA), with a 40 mm detector at a 0.35 s rotation speed and a 128-slice CT scanner. The images were corrected for random and scatter counts, decay correction and dead time correction. PET images were reconstructed with iterative reconstruction using ordered subset expectation maximization algorithm (OSEM) (2 iterations, 24 subsets). They were processed and analyzed with a dedicated commercially available workstation (GE Xeleris). Further details on the patient preparation, scan and data acquisition protocol are included in the Supplementary Materials.
Radiosynthesis of [68Ga]Ga-DATA5m-LM4 and [177Lu]Lu-AAZTA5-LM4 for Patient […]
For radiolabeling of DATA5m-LM4 with Ga-68, [68Ga]GaCl3 (200 MBq) obtained from a commercial [68Ge]Ge/[68Ga]Ga-generator (ITM Isotope Technologies Munich SE, Garching, Germany) was added in a vial containing a solution of DATA5m-LM4 (50 µg, 32.5 nmol) in 500 µL of 1 M sodium acetate buffer pH 4.5. The reaction mixture was heated for 15 min at 95 °C, affording [68Ga]Ga-DATA5m-LM4 in a radiochemical purity […]

Entries after “also recorded” stand apart in the source; their conditions may differ.

Take “[^68Ga]Ga-DOTA-[1-Nal^3]octreotide [[^68Ga]Ga-DOTA-NOC]”: the “uptake in liver metastases on PET/CT” value is “mild to negligible uptake; also recorded: weak uptake”.
